{"source": "paper PMC9605926", "about": "“Safety of [^177Lu]Lu-NeoB treatment: a preclinical study characterizing absorbed dose and acute, early, and late organ toxicity” (European Journal of Nuclear Medicine and Molecular Imaging, 2022)", "test_system": "mouse kidneys", "test": "Binary logistic regression of absorbed kidney dose versus renal histopathology", "assay_type": "in vivo", "conditions": "19 weeks, males and females combined, n = 30; 95% CI: 6.66–11.18 Gy", "method": "Statistical analysis was performed using GraphPad PRISM software (version 5). Significance levels were set at 5%. A simple binary logistic regression analysis was performed to determine a dose–effect relation between the absorbed dose and the histopathological findings in the kidneys using the log-likelihood ratio test as a significance indicator. The weight gain over time of control group 2 and treatment groups 1, 2, and 3 was compared to control group 1 by performing a two-way multiple comparison analysis of variance (ANOVA) with a Bonferroni correction. Significant outliers in the blood values set were detected with the Grubbs’ test and excluded from the data set. At a given time point, the measurements of all study groups were compared by performing a one-way ANOVA and in case of significance a Tukey test to correct for multiple comparisons. All data are represented as mean ± standard deviation (SD).\nBinary logistic regression analysis was performed to determine a dose–effect relationship for the incidence of renal toxicity (Fig. 5)."}
{"compound": "CC(C)CC(CC(C)C)NC(=O)[C@H](Cc1cnc[nH]1)NC(=O)CNC(=O)[C@@H](NC(=O)[C@H](C)NC(=O)[C@H](Cc1c[nH]c2ccccc12)NC(=O)[C@H](CCC(N)=O)NC(=O)[C@@H](Cc1ccccc1)NC(=O)COCC(=O)Nc1ccc(CNC(=O)CN2CCN(CC(=O)O)CCN(CC(=O)O)CCN(CC(=O)O)CC2)cc1)C(C)C", "note": "[[^177Lu]Lu-NeoB, metal not drawn]", "values": [{"measurement": "ED50 of absorbed kidney dose for hydronephrosis", "value": 8.65, "unit": "Gy"}]}
